Measured values from PMC6145688.

Target: Recombinant active autotaxin-β (ATXβ), Q13822
Assay: cell adhesion assay; plates coated with recombinant ATXβ; cells in HEPES-buffered Tyrode solution with 2 mM Mn2+, rested 1 h at 37° C, seeded 1 h, attached cells counted; cells preincubated 1 h with blocking antibodies (10 µg/mL) or peptides (50 µg/mL)
Conditions: remark: other sources report otherwise

percent inhibition of DU145 cell adhesion on ATXβ by LM609 (anti-αvβ3): 60% | percent inhibition of KHOS cell adhesion on ATXβ by LM609 (anti-αvβ3): 15%
B1: Integrin αvβ3, P06756 31-1048; P05106 27-788 (receptor)
chain 1: FNLDVDSPAEYSGPEGSYFGFAVDFFVPSASSRMFLLVGAPKANTTQPGIVEGGQVLKCDWSSTRRCQPIEFDATGNRDYAKDDPLEFKSHQWFGASVRSKQDKILACAPLYHWRTEMKQEREPVGTCFLQDGTKTVEYAPCRSQDIDADGQGFCQGGFSIDFTKADRVLLGGPGSFYWQGQLISDQVAEIVSKYDPNVYSIKYNNQLATRTAQAIFDDSYLGYSVAVGDFNGDGIDDFVSGVPRAARTLGMVYIYDGKNMSSLYNFTGEQMAAYFGFSVAATDINGDDYADVFIGAPLFMDRGSDGKLQEVGQVSVSLQRASGDFQTTKLNGFEVFARFGSAIAPLGDLDQDGFNDIAIAAPYGGEDKKGIVYIFNGRSTGLNAVPSQILEGQWAARSMPPSFGYSMKGATDIDKNGYPDLIVGAFGVDRAILYRARPVITVNAGLEVYPSILNQDNKTCSLPGTALKVSCFNVRFCLKADGKGVLPRKLNFQVELLLDKLKQKGAIRRALFLYSRSPSHSKNMTISRGGLMQCEELIAYLRDESEFRDKLTPITIFMEYRLDYRTAADTTGLQPILNQFTPANISRQAHILLDCGEDNVCKPKLEVSVDSDQKKIYIGDDNPLTLIVKAQNQGEGAYEAELIVSIPLQADFIGVVRNNEALARLSCAFKTENQTRQVVCDLGNPMKAGTQLLAGLRFSVHQQSEMDTSVKFDLQIQSSNLFDKVSPVVSHKVDLAVLAAVEIRGVSSPDHVFLPIPNWEHKENPETEEDVGPVVQHIYELRNNGPSSFSKAMLHLQWPYKYNNNTLLYILHYDIDGPMNCTSDMEINPLRIKISSLQTTEKNDTVAGQGERDHLITKRDLALSEGDIHTLGCGVAQCLKIVCQVGRLDRGKSAILYVKSLLWTETFMNKENQNHSYSLKSSASFNVIEFPYKNLPIEDITNSTLVTTNVTWGIQPAPMPVPVWVIILAVLAGLLLLAVLVFVMYRMGFFKRVRPPQEEQEREQLQPHENGEGNSET
chain 2: GPNICTTRGVSSCQQCLAVSPMCAWCSDEALPLGSPRCDLKENLLKDNCAPESIEFPVSEARVLEDRPLSDKGSGDSSQVTQVSPQRIALRLRPDDSKNFSIQVRQVEDYPVDIYYLMDLSYSMKDDLWSIQNLGTKLATQMRKLTSNLRIGFGAFVDKPVSPYMYISPPEALENPCYDMKTTCLPMFGYKHVLTLTDQVTRFNEEVKKQSVSRNRDAPEGGFDAIMQATVCDEKIGWRNDASHLLVFTTDAKTHIALDGRLAGIVQPNDGQCHVGSDNHYSASTTMDYPSLGLMTEKLSQKNINLIFAVTENVVNLYQNYSELIPGTTVGVLSMDSSNVLQLIVDAYGKIRSKVELEVRDLPEELSLSFNATCLNNEVIPGLKSCMGLKIGDTVSFSIEAKVRGCPQEKEKSFTIKPVGFKDSLIVQVTFDCDCACQAQAEPNSHRCNNGNGTFECGVCRCGPGWLGSQCECSEEDYRPSQQDECSPREGQPVCSQRGECLCGQCVCHSSDFGKITGKYCECDDFSCVRYKGEMCSGHGQCSCGDCLCDSDWTGYYCNCTTRTDTCMSSNGLLCSGRGKCECGSCVCIQPGSYGDTCEKCPTCPDACTFKKECVECKKFDRGALHDENTCNRYCRDEIESVKELKDTGKDAVNCTYKNEDDCVVRFQYYEDSSGKSILYVVEEPECPKGPDILVVLLSVMGAILLIGLAALLIWKLLITIHDRKEFAKFEEERARAKWDTANNPLYKEATSTFTNITYRGT
